Molecular target: human angiotensin-converting-enzyme-2 (ACE2) receptor, recombinant (human, UniProt Q9BYF1 18-740)
Experiment: SPR

Chain of human angiotensin-converting-enzyme-2 (ACE2) receptor, recombinant (Q9BYF1 18-740): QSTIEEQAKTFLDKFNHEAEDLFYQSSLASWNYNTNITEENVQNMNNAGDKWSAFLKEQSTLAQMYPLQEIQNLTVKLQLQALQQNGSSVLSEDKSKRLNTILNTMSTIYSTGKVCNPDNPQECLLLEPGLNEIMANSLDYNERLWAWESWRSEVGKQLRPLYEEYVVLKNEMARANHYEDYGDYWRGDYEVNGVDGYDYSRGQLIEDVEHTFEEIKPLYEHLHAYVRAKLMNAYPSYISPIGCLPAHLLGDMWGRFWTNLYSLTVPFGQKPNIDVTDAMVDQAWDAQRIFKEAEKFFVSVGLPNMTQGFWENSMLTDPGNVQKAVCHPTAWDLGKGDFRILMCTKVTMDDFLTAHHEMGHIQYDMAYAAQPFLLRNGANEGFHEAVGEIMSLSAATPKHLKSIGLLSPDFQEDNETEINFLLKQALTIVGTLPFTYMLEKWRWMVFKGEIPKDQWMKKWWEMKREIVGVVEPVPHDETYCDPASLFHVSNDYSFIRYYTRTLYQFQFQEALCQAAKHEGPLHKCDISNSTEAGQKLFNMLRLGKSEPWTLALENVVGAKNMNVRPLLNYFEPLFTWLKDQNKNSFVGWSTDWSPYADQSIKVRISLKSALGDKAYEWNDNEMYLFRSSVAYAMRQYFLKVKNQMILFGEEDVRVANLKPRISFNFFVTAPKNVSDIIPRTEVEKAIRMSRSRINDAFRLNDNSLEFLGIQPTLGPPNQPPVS

B1: pineapple-derived jacalin-related lectin AcmJRL (natural protein)
chain: SGLVKLGLWGGNEGTLQDIDGHPTRLTKIVIRSAHAIDALQFDYVEDGKTFAAGQWGGNGGKSDTIEFQPGEYLIAIKGTTGALGAVTNLVRSLTFISNMRTYGPFGLEHGTPFSVPVASGRIVAFYGRFGSLVDAFGIYLMPY
modifications: glycation (+162 Da, +324 Da) of lysines in part of the protein (ca. 10% bis-, 36% mono-modified, 54% unmodified); sites not determined
Kd: 36.4 µM

Reference: doi:10.1101/2022.05.27.493400 (2022)
